Experimental findings from PMC5458252, “Niclosamide is a potential therapeutic for familial adenomatosis polyposis by disrupting Axin-GSK3 interaction” (Oncotarget, 2017) are described below.

The experiment concerns the target T1, His-tagged recombinant GSK3β (UniProt P49841 1-420).
T1 construct: GSK3β, recombinant; source: sf9 insect cells, recombinant, purified
Kind of experiment: SPR; ProteOn XPR36; GSK3β immobilised on a GLH sensor chip; peptides in PBS with Tween 20 and 1% DMSO flowed at 100 μl/min; Langmuir model. The settings on record: both partners purified.

T1 sequence (P49841 whole entry): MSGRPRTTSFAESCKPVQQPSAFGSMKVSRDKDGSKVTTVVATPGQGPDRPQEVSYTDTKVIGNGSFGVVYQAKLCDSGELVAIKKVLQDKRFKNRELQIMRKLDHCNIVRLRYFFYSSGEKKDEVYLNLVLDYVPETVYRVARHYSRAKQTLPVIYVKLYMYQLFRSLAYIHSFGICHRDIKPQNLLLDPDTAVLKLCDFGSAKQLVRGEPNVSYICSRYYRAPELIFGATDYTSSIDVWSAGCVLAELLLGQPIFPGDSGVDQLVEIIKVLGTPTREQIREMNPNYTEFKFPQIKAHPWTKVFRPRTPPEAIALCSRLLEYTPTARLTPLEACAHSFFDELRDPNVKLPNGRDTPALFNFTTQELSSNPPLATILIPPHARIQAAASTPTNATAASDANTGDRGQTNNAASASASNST

B1: 19-mer wild type Axin peptide (peptide)
peptide: VEPQKFAEELIHRLEAVQR
notes: Axin1, residues 383-401; source: synthetic peptide
For the molecule B1, the dissociation constant (Kd) is 11.9 µM.
